Results from patent US20190225669A1 (ACCELERON PHARMA, published 2019).

Legend:
TGFβ1 [1] = target: T1, TGFβ1 (human, UniProt P01137 279-390); assay: Biacore SPR; * low signal
T1 construct: Human (PeproTech) is stated for the A549 reporter assay; also called TGF-beta1
Description: (§1) The heteromeric or homomeric protein complexes were independently captured onto the system using an anti-Fc antibody. Ligands were injected and allowed to flow over the captured receptor protein.

TGFβ2 [2] = target: T2, TGFβ2 (human, UniProt P61812 303-414); assay: Biacore SPR; * low signal
T2 construct: Human (PeproTech) is stated for the A549 reporter assay; also called TGF-beta2
T2 sequence (looked up): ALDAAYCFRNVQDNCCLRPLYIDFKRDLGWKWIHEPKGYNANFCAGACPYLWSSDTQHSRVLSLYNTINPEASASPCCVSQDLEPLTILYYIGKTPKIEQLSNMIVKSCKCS
Description: as §1

TGFβ3 [3] = target: T3, TGFβ3 (human, UniProt P10600 301-412); assay: Biacore SPR; * low signal
T3 construct: Human (PeproTech) is stated for the A549 reporter assay; also called TGF-beta3
T3 sequence (looked up): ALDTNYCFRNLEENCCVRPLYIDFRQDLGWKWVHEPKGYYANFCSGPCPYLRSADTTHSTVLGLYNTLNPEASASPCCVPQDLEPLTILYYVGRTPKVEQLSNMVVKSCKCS
Description: as §1

BMP10 = target: T4, BMP10 (UniProt O95393 317-424); assay: Biacore SPR
T4 sequence (looked up): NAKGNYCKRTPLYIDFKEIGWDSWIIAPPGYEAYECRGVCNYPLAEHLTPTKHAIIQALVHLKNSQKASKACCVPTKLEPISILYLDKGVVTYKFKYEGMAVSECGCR

TGFβ2 [4] = target: T2, TGFβ2; assay: Biacore SPR
BMP9 = target: T5, BMP9 (UniProt Q9UK05 320-429); assay: Biacore SPR
T5 construct: also called GDF2
T5 sequence (looked up): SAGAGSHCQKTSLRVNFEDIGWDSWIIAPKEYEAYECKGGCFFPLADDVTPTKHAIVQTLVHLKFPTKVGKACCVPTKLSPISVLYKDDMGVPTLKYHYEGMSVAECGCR

TGFβ1 [5] = target: T1, TGFβ1; assay: cell-based or functional assay
TGFβ2 [6] = target: T2, TGFβ2; assay: cell-based or functional assay
TGFβ3 [7] = target: T3, TGFβ3; assay: cell-based or functional assay

T1 sequence (P01137 279-390 limits assumed): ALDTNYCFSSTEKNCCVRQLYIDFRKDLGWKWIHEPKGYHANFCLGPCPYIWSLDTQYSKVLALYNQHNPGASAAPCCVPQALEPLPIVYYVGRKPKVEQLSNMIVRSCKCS

- Kd (TGFβ1 [1]): 14 pM
- koff (TGFβ1 [1]): 0.00092 s⁻¹
- kon (TGFβ1 [1]): 6.6e+07 M⁻¹ s⁻¹
- Kd (TGFβ2 [2]): 0.07 pM
- koff (TGFβ2 [2]): 2.8e-07 s⁻¹
- kon (TGFβ2 [2]): 4.2e+06 M⁻¹ s⁻¹
- Kd (TGFβ3 [3]): 38 pM
- koff (TGFβ3 [3]): 0.001 s⁻¹
- kon (TGFβ3 [3]): 2.7e+07 M⁻¹ s⁻¹
- binding result (BMP10): no binding
- affinity ratio against TGFβRII-Fc homodimer (TGFβ2 [4]): ~100000 fold
- off-rate ratio against TGFβRII-Fc homodimer (TGFβ2 [4]): ~10000 fold
- binding result (BMP9): no binding
- IC50 (pM), CAGA12-luciferase reporter gene assay in A549 cells, TGFβ1 at 640 pg/mL (TGFβ1 [5]): 204 pM
- IC50 (pM), CAGA12-luciferase reporter gene assay in A549 cells, TGFβ2 at 480 pg/mL (TGFβ2 [6]): 154 pM
- IC50 (pM), CAGA12-luciferase reporter gene assay in A549 cells, TGFβ3 at 270 pg/mL (TGFβ3 [7]): 35 pM
B1: TGFβRIILONG-Fc:ALK5-Fc heterodimer (Fc fusion)
chain 1: TIPPHVQKSDVEMEAQKDEIICPSCNRTAHPLRHINNDMIVTDNNGAVKFPQLCKFCDVRFSTCDNQKSCMSNCSITSICEKPQEVCVAVWRKNDENITLETVCHDPKLPYHDFILEDAASPKCIMKEKKKPGETFFMCSCSSDECNDNIIFSEEYNTSNPDTGGGTHTCPPCPAPELLGGPSVFLFPPKPKDTLMISRTPEVTCVVVDVSHEDPEVKFNWYVDGVEVHNAKTKPREEQYNSTYRVVSVLTVLHQDWLNGKEYKCKVSNKALPAPIEKTISKAKGQPREPQVYTLPPSRKEMTKNQVSLTCLVKGFYPSDIAVEWESNGQPENNYKTTPPVLKSDGSFFLYSKLTVDKSRWQQGNVFSCSVMHEALHNHYTQKSLSLSPGK
chain 2: ALLPGATALQCFCHLCTKDNFTCVTDGLCFVSVTETTDKVIHNSMCIAEIDLIPRDRPFVCAPSSKTGSVTTTYCCNQDHCNKIELPTTVKSSPGLGPVETGGGTHTCPPCPAPELLGGPSVFLFPPKPKDTLMISRTPEVTCVVVDVSHEDPEVKFNWYVDGVEVHNAKTKPREEQYNSTYRVVSVLTVLHQDWLNGKEYKCKVSNKALPAPIEKTISKAKGQPREPQVYTLPPSREEMTKNQVSLTCLVKGFYPSDIAVEWESNGQPENNYDTTPPVLDSDGSFFLYSDLTVDKSRWQQGNVFSCSVMHEALHNHYTQKSLSLSPG
notes: also called TGFβRII-Fc:ALK5-Fc heterodimer (long isoform)
